In patent US20100273704A1:

Target: BCL-XL ΔC [GST: P08515]
Experiment: fluorescence polarization

Substance | EC50 [nM]
BAD SAHBA | 40.2
BAD SAHBA(L,D→A) | 333
BID SAHBA | 35.3
BAD SAHBA(S→D) | > 10000
